From paper PMC5014551, “Role of Nfu1 and Bol3 in iron-sulfur cluster transfer to mitochondrial clients” (eLife, 2016)

Target: T1, recombinant human BOLA1, fluorescently labelled (human, UniProt Q9Y3E2 1-137, NT-647 dye (Monolith NT Protein Labeling Kit RED))
T1 construct: BOLA1, human mitochondrial BolA protein
T1 sequence (looked up): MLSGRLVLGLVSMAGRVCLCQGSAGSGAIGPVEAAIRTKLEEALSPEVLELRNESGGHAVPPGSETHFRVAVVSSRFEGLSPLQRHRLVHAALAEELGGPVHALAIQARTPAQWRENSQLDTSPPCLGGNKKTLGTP
Experiment: MST; 200 nM NT-647 labelled protein titrated with unlabelled protein from 200 µM to 6.1 nM; 50 mM KPi pH 7.4, 150 mM NaCl, 5% glycerol, 0.05 mg/mL BSA, 0.05% Tween20; 21°C; anaerobic
Details: both partners purified

B1: human holo-GLRX5 dimer containing the bridging [2Fe-2S] cluster (natural protein, UniProt Q86SX6 32-157, looked up)
chain: AGSGAGGGGSAEQLDALVKKDKVVVFLKGTPEQPQCGFSNAVVQILRLHGVRDYAAYNVLDDPELRQGIKDYSNWPTIPQVYLNGEFVGGCDILLQMHQNGDLVEELKKLGIHSALLDEKKDQDSK
modifications: bridging [2Fe-2S] cluster between two GLRX5 monomers
notes: GLRX5, human mitochondrial monothiol glutaredoxin, chemically reconstituted; also called chemically reconstituted GLRX5; source: chemically reconstituted with Fe-S cluster in an anaerobic chamber
fold affinity against BOLA3: 50 fold
